# Source: the Human Domainome abundance scans (Beltran et al. 2025)
# ± gives the uncertainty stated by the source.
# B1: 1-phosphatidylinositol 4,5-bisphosphate phosphodiesterase gamma-2, residues 772 to 827; numbered along this chain, P16885 (parent)
# chain: RTVKALYDYKAKRSDELSFCRGALIHNVSKEPGGWWKGDYGTRIQQYFPSNYVEDI
# Variants of: B1
# Test: abundance fitness (aPCA) (normalised: wild type 0, dead -1); higher = more abundant; growth selection in yeast, the domain comes from the species named
# Conditions: Homo sapiens
row,Variant,abundance fitness
1,G34N,0.138 ± 0.092
2,G34C,-0.284 ± 0.14
3,G34S,-0.129 ± 0.051
4,G34R,-0.06 ± 0.069
5,G34Y,-0.164 ± 0.15
6,F19G,-0.604 ± 0.23
7,F19V,-0.886 ± 0.1
8,F19E,-0.711 ± 0.47
9,G33W,-0.258 ± 0.092
10,G33F,-0.203 ± 0.17
11,G33Y,-0.293 ± 0.064
12,G33T,-0.421 ± 0.15
13,G33S,-0.114 ± 0.049
14,G33R,-0.434 ± 0.061
15,V28D,-0.821 ± 0.47
16,V28Q,-0.762 ± 0.3
17,V28K,-0.623 ± 0.35
18,V28T,-0.486 ± 0.23
19,K37D,-0.486 ± 0.49
20,K37L,-0.276 ± 0.077
21,N27S,-0.473 ± 0.12
22,N27Q,-0.13 ± 0.17
23,N27V,-0.958 ± 0.28
24,C20M,-0.063 ± 0.073

row,Variant,abundance fitness
1,C20V,0.017 ± 0.051
2,C20T,-0.012 ± 0.083
3,G41P,-1.01 ± 0.13
4,A23R,-0.698 ± 0.086
5,A23F,-0.314 ± 0.23
6,Y9W,-0.223 ± 0.098
7,Y9S,-0.939 ± 0.27
8,Y9P,-0.734 ± 0.3
9,Y9E,-0.868 ± 0.31
10,K12M,-0.004 ± 0.068
11,K12P,-0.93 ± 0.18
12,K12A,-0.16 ± 0.078
13,K12W,-0.369 ± 0.24
14,S18V,-0.914 ± 0.24
15,S18D,-0.201 ± 0.21
16,T42G,0.078 ± 0.052
17,T42Y,-0.385 ± 0.27
18,T42E,0.168 ± 0.081
19,T42I,-0.021 ± 0.074
20,T42C,-0.227 ± 0.17
21,Y7A,0.01 ± 0.066
22,Y7G,-0.35 ± 0.051
23,Y7C,-0.118 ± 0.14
24,Y7L,-0.077 ± 0.074

row,Variant,abundance fitness
1,I25A,-0.741 ± 0.16
2,D39K,-0.74 ± 0.5
3,D39W,-0.82 ± 0.2
4,D39R,-1.01 ± 0.084
5,D39T,-0.418 ± 0.21
6,R43G,-0.01 ± 0.051
7,R43P,-0.909 ± 0.17
8,R43L,-0.139 ± 0.048
9,G22E,-0.418 ± 0.19
10,G22M,-0.52 ± 0.23
11,G22K,-0.203 ± 0.34
12,G22N,-0.364 ± 0.26
13,G22T,-0.872 ± 0.095
14,G22Y,-0.856 ± 0.46
15,W36E,-0.809 ± 0.33
16,F48S,-0.872 ± 0.11
17,F48M,-0.911 ± 0.15
18,F48N,-0.437 ± 0.4
19,F48W,-0.848 ± 0.16
20,Y40K,0.189 ± 0.11
21,Y40A,-0.3 ± 0.13
22,W35S,-0.273 ± 0.14
23,W35E,-0.217 ± 0.062
24,W35I,-0.611 ± 0.32

row,Variant,abundance fitness
1,W35F,0.044 ± 0.19
2,W35D,-0.381 ± 0.36
3,S50K,0.103 ± 0.12
4,S50L,-0.737 ± 0.13
5,A11Q,-0.176 ± 0.19
6,A11N,-0.378 ± 0.17
7,A11S,-0.39 ± 0.11
8,E31A,-0.1 ± 0.065
9,E31S,0.002 ± 0.073
10,E31D,-0.22 ± 0.086
11,E31Q,-0.071 ± 0.13
12,E31W,0.036 ± 0.15
13,E31P,-0.291 ± 0.12
14,D15M,0.185 ± 0.11
15,D15S,0.006 ± 0.058
16,D15T,0.178 ± 0.1
17,A5N,-0.964 ± 0.099
18,A5Q,-0.865 ± 0.15
19,A5G,-0.868 ± 0.13
20,A5W,-0.955 ± 0.19
21,A5K,-0.998 ± 0.13
22,A5F,-0.895 ± 0.07
23,K4Y,0.019 ± 0.15
24,K4C,-0.068 ± 0.11

row,Variant,abundance fitness
1,P32Q,0.022 ± 0.11
2,P32N,0.256 ± 0.3
3,P32K,-0.229 ± 0.15
4,R21V,-0.122 ± 0.088
5,R21N,-0.086 ± 0.36
6,G38V,-0.851 ± 0.2
7,G38T,-0.821 ± 0.47
8,Y47V,-0.34 ± 0.076
9,Y47F,-0.051 ± 0.085
10,Y47M,-0.417 ± 0.19
11,Y47L,0.002 ± 0.056
12,Q45I,-0.658 ± 0.28
13,Q45W,-0.916 ± 0.45
14,Q45N,-0.273 ± 0.11
15,Q45S,-0.472 ± 0.093
16,D55G,-0.314 ± 0.074
17,D55V,-0.238 ± 0.06
18,D55E,0.065 ± 0.089
19,D55Q,-0.281 ± 0.12
20,L17G,-1 ± 0.44
21,L17E,-0.81 ± 0.42
22,L17F,-0.492 ± 0.25
23,R13G,-0.316 ± 0.083
24,R13Y,-0.1 ± 0.11

row,Variant,abundance fitness
1,R13Q,-0.301 ± 0.18
2,R13F,-0.007 ± 0.12
3,K10L,-0.399 ± 0.062
4,K10F,-0.333 ± 0.25
5,K10M,-0.356 ± 0.12
6,R1C,-0.495 ± 0.38
7,R1E,-0.056 ± 0.14
8,V53T,-0.177 ± 0.091
9,I44F,-0.237 ± 0.16
10,I44A,-0.196 ± 0.05
11,I44T,0.191 ± 0.08
12,I44H,0.026 ± 0.084
13,I44P,-0.845 ± 0.47
14,E54T,-0.256 ± 0.067
15,E54A,-0.119 ± 0.053
16,E16H,-0.201 ± 0.38
17,Y52H,-0.222 ± 0.097
18,Y52A,-0.092 ± 0.091
19,Y52S,-0.304 ± 0.066
20,L24E,-0.083 ± 0.063
21,L24H,-0.335 ± 0.22
22,S14E,-0.206 ± 0.095
23,S14Y,-0.304 ± 0.19
24,S14W,-0.334 ± 0.09

row,Variant,abundance fitness
1,S14T,-0.291 ± 0.13
2,Q46N,-0.114 ± 0.16
3,Q46G,0.086 ± 0.071
4,Q46K,-0.067 ± 0.097
5,H26W,-0.072 ± 0.08
6,H26G,-0.43 ± 0.093
7,K30R,-0.05 ± 0.093
8,K30M,-0.092 ± 0.082
9,K30L,-0.169 ± 0.057
10,D8M,-0.579 ± 0.13
11,D8N,-0.059 ± 0.054
12,D8G,-0.083 ± 0.072
13,D8T,0.078 ± 0.095
14,D8S,-0.059 ± 0.076
15,T2F,-0.702 ± 0.41
16,T2L,-0.315 ± 0.1
17,T2Q,-0.094 ± 0.11
18,T2N,-0.587 ± 0.15
19,V3C,-0.267 ± 0.38
20,N51H,0.208 ± 0.11
21,N51I,-0.373 ± 0.25
22,N51S,0.067 ± 0.059
23,N51T,-0.025 ± 0.045
